The assay addresses mouse anti V5 antibody (Thermo Scientific). The experiment in a line: ELISA: 1 ug/ml mouse anti V5 with increasing SADC, complexes captured on streptavidin via biotinylated SADC peptide, bound IgG detected with anti mouse IgG-HRP.

Non-standard residues stand in square brackets, D forms with d. No end group written: not given here.

This passage reports EC50 results from patent publication US20230381334A1.

In turn, IPNPLLGLDGGSGDYKDDDDKGK[BiotinAca]GC (peptide, part only; not given: albumin scaffold, part only, also: bound to albumin scaffold, attachment site not given here) [SADC with albumin scaffold carrying tagged V5 peptide …-(BiotinAca)GC] yielded an EC50 of 0.0279 µg/mL. To IPNPLLGLDGGSGDYKDDDDKGK[BiotinAca]GC (peptide, part only; not given: haptoglobin scaffold, part only, also: bound to haptoglobin scaffold, attachment site not given here) [SADC with haptoglobin scaffold carrying tagged V5 peptide …-(BiotinAca)GC] belongs 0.0555 µg/mL; to IPNPLLGLDGGSGDYKDDDDKGK[BiotinAca]GC (peptide, part only; not given: transferrin scaffold, part only, also: bound to transferrin scaffold, attachment site not given here) [SADC with transferrin scaffold carrying tagged V5 peptide …-(BiotinAca)GC], 0.007 µg/mL.
